According to publication PMC9126151:

Target: non-translating 70S ribosome (E. coli) (UniProt P0AG44)
Experiment: FRET or BRET

Row | Substance | Kd [µM]
1 | methionine aminopeptidase MAP(H79A), TMR-labelled (from UniProt P0AE18 1-264) (enzyme) | 5.4
2 | peptide deformylase PDF(E133A), TMR-labelled (enzyme) | 7.3
